The results in this text go back to patent US20230257454A1 (STAIDSON BEIJING BIOPHARMACEUTICALS, published 2023).

B1: Cab02 scFv (scFv, V domains shown)
VH: EVQLVESGGGLVQPGGSLKVSCAASGFIFSDYYMQWVRQAPGKGPEWVGLIRKKVNGGTTEYAASVKGRFTISRDDSKSIAYLQMSSLKIEDTAVYYCVSRAGPPGLTWGQGVLVTISS
VL: DIVMIQTPLSLPVTPGEPASISCRSSQRLLHSDGYTYLDWYLQKPGQSPQLLIYGGSNRASGVPDRFSGSGSGTDFTLKISKVEAEDVGVYYCMQHKALPLTFGGGTKLEIK
B2: Cab28 scFv (scFv, V domains shown)
VH: DMQLVESGGGLVQPGGSLKVSCAASGFTFSDYYMQWVRQAPGKGPEWVGLIRNKAVGGTTQYAASVKGRFTISRDDSKSIVYLEMSSLKTEDTAVYYCVSRAGPPGLSWGQGVLVTVSS
VL: DIVMIQNPLSLPVTPGEPASISCRSSQNLLATDGYTYLDWYLQKPGQSPQVLIYGGSKRASGVPDRFSGSGSGTDFTLKISKVEAEDVGIYYCLQHRALPPTFGQGTKLEIK
B3: Cab37 (reformatted as human IgG1) (antibody, V domains shown)
VH: EMQLVESGGGLVQPGGSLRLSCAASGFTFSDYYMQWVRQAPGKGPEWVGLIRNKAVGFTTQYAASVKGRFTISRDDSKNSVYLQMNSLKTEDTAVYYCVSRAGPPGLSWGQGVLVTVSS
VL: DIVMTQSPLSLPVTPGEPASISCRSSQSLLASDGYNYIDWYLQKPGQSPQLLIYGGSNRASGVPDRFSGSGSGTDFTLKISRVEAEDVGVYFCLQHRALPPTFGQGTKLEIK
B4: Cab34 (reformatted as human IgG1) (antibody, V domains shown)
VH: EMQLVESGGGLVQPGGSLRLSCAASGFTFSDYYMQWVRQAPGKGPEWVGLIRNKAVGGTTEYAASVKGRFTISRDDSKNSVYLQMNSLKTEDTAVYYCVSRAGPPGLSWGQGVLVTVSS
VL: DIVMTQSPLSLPVTPGEPASISCRSSQSLLASDGYNYIDWYLQKPGQSPQLLIYGGSNRASGVPDRFSGSGSGTDFTLKISRVEAEDVGVYFCLQHRALPPTFGQGTKLEIK
B5: Cab30 scFv (scFv, V domains shown)
VH: DMQLVESGGGLVQPGGSLKVSCAASGFTFSDYYMQWVRQAPGKGPEWVGLIRNKAVGGTTQYAASVKGRFTISRDDSKSIVYLEMSSLKTEDTAVYYCVSRAGPPGLSWGQGVLVTVSS
VL: DIVMTQTPLSLPVTPGEPASISCRSSQSLLHSDGYTYLDWYLQRPGQSPHLLIYGGSNRASGVPDRFSGSGSGTDFTLKISKVEAEDVGVYYCMQHKVLPPTFGQGTKLEIK
B6: Cab14 scFv (scFv, V domains shown)
VH: VVQLVESGGGLVQPGGSLKVSCATSGFTFSDYYMQWVRQAPGKGPEWLGLIRNKAIGGTTQYAASVKGRFTISRDDSKGIAYLQMSSLKTEDTAVYYCVCRAGPPGLSWGQGVLVTVSS
VL: DIELTQTPLSRPVTPGEPASISCRSSQSLLHTDGYTYLDWYLQKPGQSPQLLIYGGSNRASGVPDRFSGSGSGTDFTLKISKVEAEDVGVYYCMQHKALPLTFGGGTKLEIK
B7: Cab19 scFv (scFv, V domains shown)
VH: EVQLVESGGGLVQPGGSLKVSCVASGFTFSDYYIQWVRQAPGKGPEWVGLIRNKAVGGTTSYAASVKGRFTISRDDSKSVAYLQMTSLKTEDTAVYFCVSRAGPPGLSWGQGVLVTVSS
VL: DIVMIQNPLSLPVTPGEPASISCRSSQSLLHSDGYTYLDWYQQKPGQAPQLLIYGGSNRASGVPDRFSGSGSATDFTLKISKMEAEDVGVYYCMQHKALPPTFGGGTKVEIK
B8: Cab31 scFv (scFv, V domains shown)
VH: DMQLVESGGGLVQPGGSLKVSCAASGFTFSDYYMQWVRQAPGKGPEWVGLIRNKAVGGTTQYAASVKGRFTISRDDSKSIVYLEMSSLKTEDTAVYYCVSRAGPPGLSWGQGVLVTVSS
VL: DTVMSQIPLSLPVTPGEPASISCRSSQSLLHSDGYTYMDWYLQKPGQSPQLLIYGGSNRASGVPDRFSGSGSGTDFTLKISKVEAEDVGVYYCMQHKVLPPTFGQGTRLEIK
B9: Cab46 (reformatted as human IgG1) (antibody, V domains shown)
VH: EVQLVESGGGLVQPGGSLRLSCAASGFTFSDYYIQWVRQAPGKGPEWVGLIRNKAVGGTTTYAASVKGRFTISRDDSKNSAYLQMNSLKTEDTAVYFCVSRAGPPGLSWGQGVLVTVSS
VL: DIVMTQSPLSLPVTPGEPASISCRSSQSLLATDGYEYLDWYLQKPGQSPQLLIYGASNRASGVPDRFSGSGSGTDFTLKISRVEAEDVGVYYCLQHKALPPTFGQGTKLEIK
B10: Cab40 (reformatted as human IgG1) (antibody, V domains shown)
VH: EMQLVESGGGLVQPGGSLRLSCAASGFTFSDYYMQWVRQAPGKGPEWVGLIRNKAVGQTTQYAASVKGRFTISRDDSKNSVYLQMNSLKTEDTAVYYCVSRAGPPGLSWGQGVLVTVSS
VL: DIVMTQSPLSLPVTPGEPASISCRSSQSLLASDGYNYIDWYLQKPGQSPQLLIYGGSNRASGVPDRFSGSGSGTDFTLKISRVEAEDVGVYFCLQHRALPPTFGQGTKLEIK
B11: Cab36 (reformatted as human IgG1) (antibody, V domains shown)
VH: EMQLVESGGGLVQPGGSLRLSCAASGFTFSDYYMQWVRQAPGKGPEWVGLIRNKAVGETTEYAASVKGRFTISRDDSKNSVYLQMNSLKTEDTAVYYCVSRAGPPGLSWGQGVLVTVSS
VL: DIVMTQSPLSLPVTPGEPASISCRSSQSLLASDGYNYIDWYLQKPGQSPQLLIYGGSNRASGVPDRFSGSGSGTDFTLKISRVEAEDVGVYFCLQHRALPPTFGQGTKLEIK
B12: Cab41 (reformatted as human IgG1) (antibody, V domains shown)
VH: EMQLVESGGGLVQPGGSLRLSCAASGFTFSDYYMQWVRQAPGKGPEWVGLIRNKAVGRTTQYAASVKGRFTISRDDSKNSVYLQMNSLKTEDTAVYYCVSRAGPPGLSWGQGVLVTVSS
VL: DIVMTQSPLSLPVTPGEPASISCRSSQSLLASDGYNYIDWYLQKPGQSPQLLIYGGSNRASGVPDRFSGSGSGTDFTLKISRVEAEDVGVYFCLQHRALPPTFGQGTKLEIK
B13: Cab18 scFv (scFv, V domains shown)
VH: VVQLVESGGGLVQPGGSLKVSCAASGFTFSDYYMQWVRQAPGKGPEWVGLIRNKAIGETTQYAASVKGRFTISRDDSKSIVYLQMSSLKTEDTAVYYCVSRAGPPGLSWGQGVLVTVSS
VL: DIVMTQNPLSLPVTPGEPASISCRSSQSLLDSNRYAYVDWYLQKPGQSPQILVYGGSNRASGVPDRFSGSGSGTDFTLKISKVEAEDVGIYYCMQHKVLPPTFGQGTKLEIK
B14: Cab17 scFv (scFv, V domains shown)
VH: VVQLVESGGGLVLPGGSLKVSCAASGFIFSDYYIQWVRQAPGKGPEWVGLIRNKAVGETVQYAASLKGRFTISRDDSKSIAYLQMTSLKTEDTAMYYCVSRAGPPGLTWGQGVLVTVSS
VL: DIVMIQNPLSLSVTPGEPASISCRSSQRLLASDGYTYVDWYLQKPGQSPQILIYGGSNRASGVPDRFSGSGSGTDFTLKISKVEAEDVGVYYCMQHKALPPTFGQGTKLEIK
B15: Cab33 (reformatted as human IgG1) (antibody, V domains shown)
VH: EMQLVESGGGLVQPGGSLRLSCAASGFTFSDYYMQWVRQAPGKGPEWVGLIRNKAVGGTTQYAASVKGRFTISRDDSKNSVYLQMNSLKTEDTAVYYCVSRAGPPGLSWGQGVLVTVSS
VL: DIVMTQSPLSLPVTPGEPASISCRSSQSLLASDGYNYIDWYLQKPGQSPQLLIYGGSNRASGVPDRFSGSGSGTDFTLKISRVEAEDVGVYFCLQHKALPPTFGQGTKLEIK
B16: Cab32 (reformatted as human IgG1) (antibody, V domains shown)
VH: EMQLVESGGGLVQPGGSLRLSCAASGFTFSDYYMQWVRQAPGKGPEWVGLIRNKAVGGTTQYAASVKGRFTISRDDSKNSVYLQMNSLKTEDTAVYYCVSRAGPPGLSWGQGVLVTVSS
VL: DIVMTQSPLSLPVTPGEPASISCRSSQSLLASDGYIYIDWYLQKPGQSPQLLIYGGSNRASGVPDRFSGSGSGTDFTLKISRVEAEDVGVYFCLQHRALPPTFGQGTKLEIK
B17: Cab39 (reformatted as human IgG1) (antibody, V domains shown)
VH: EMQLVESGGGLVQPGGSLRLSCAASGFTFSDYYMQWVRQAPGKGPEWVGLIRNKAVGITTQYAASVKGRFTISRDDSKNSVYLQMNSLKTEDTAVYYCVSRAGPPGLSWGQGVLVTVSS
VL: DIVMTQSPLSLPVTPGEPASISCRSSQSLLASDGYNYIDWYLQKPGQSPQLLIYGGSNRASGVPDRFSGSGSGTDFTLKISRVEAEDVGVYFCLQHRALPPTFGQGTKLEIK
B18: Cab29 scFv (scFv, V domains shown)
VH: DMQLVESGGGLVQPGGSLKVSCAASGFTFSDYYMQWVRQAPGKGPEWVGLIRNKAVGGTTQYAASVKGRFTISRDDSKSIVYLEMSSLKTEDTAVYYCVSRAGPPGLSWGQGVLVTVSS
VL: DIVMIQNPLSLSVSLGEPASISCRSSQSLLATDGYEYLDWYLQKPGQSPQILIYGASNRASGVPDRFSGRGSGTDFTLKITKVEAEDVGVYYCLQHKALPPTFGQGTKLEIK
B19: Cab01 scFv (scFv, V domains shown)
VH: EVQLVESGGGMVQPGGSLRVSCAASGFTFTKYYMQWVRQAPGKGPEWVGLIRNKANGGTAEYVASVKDRFTISRDDSKSIAYLQMSSLKTEDTAVYYCVMRDNGYHWGQGVLVTVSS
VL: DIVLTQTPLSLPVTPGEPASISCRSSQRLLHSDGYTYLDWYLQKPGQSPQLLIYGGSNRASGVPDRFSGSGSGTDFTLKISKVEAEDVGVYYCMQHKALPLTFGGGTKVEIK
B20: Cab21 scFv (scFv, V domains shown)
VH: EVQLVQSGGGLVQPGGSLKVSCAASGFIFSNYYIQWVRQAPGKGPEWVGLIRNKAIGETTEFAASVKGRFTISRDDSKSIVYLQMTRLKTEDTAVYYCAGRLGPPGLTWGQGVLVTISS
VL: DAVMTQTPLSLPVTPGEPASISCRSSQSLLASDGYNYIDWYLQRPGQSPKVLIYGGSNRASGVPDRFSGSGSGTYFTLKISKVEAEDVGFYFCLQHRALPPTFGQGTKLEIK
B21: Cab13 scFv (scFv, V domains shown)
VH: VVQLVESGGGLVQPGGSLKVSCAASGFTFSDYYMQWVRQAPGKGPEWVGLIRNKAIGGTTQYAASVKGRFTISRDDSKSIVYLQMSSLKTEDTAVYYCVSRAGPPGLSWGQGVLVTISS
VL: DIVMIQNPLSLPVTPGEPASISCRSSQSLLASDGYNYMDWYLQKPGQSPKVLIYGGSNRASGVPDRFSGSGSGTDFTLKITKVEAEDVGIYYCMQHKVLPPTFGQGTKLEIK

The first experiment addresses T1, human C5a (source not stated) (human, UniProt P01031 678-751).
T1 sequence: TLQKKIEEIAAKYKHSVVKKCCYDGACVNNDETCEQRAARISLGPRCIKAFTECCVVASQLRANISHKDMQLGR
Put plainly: cell-based or functional assay.
As for B1, the ROS IC50 is 1.67 nM. In the case of B2, the ROS IC50 came out at 0.98 nM. As for B3, the ROS IC50 came to 0.92 nM.

In turn, B4 came in with an ROS IC50 of 1.61 nM. On the same count and under the same terms, to B5 belongs 1.18 nM.

Molecule B6 displayed an ROS IC50 of 1.2 nM. The molecule B7 returned an ROS IC50 of 1.32 nM. The same measure, in the same setting: for B8 the value was 1.26 nM; for B9, 0.66 nM. With B10, the ROS IC50 worked out at 0.7 nM. As to B11, the ROS IC50 worked out at 1.41 nM. Still for that read-out and setting: to B12 belongs 0.7 nM; to B13, 1.36 nM. B14 had an ROS IC50 of 1.87 nM. As for B15, the ROS IC50 amounted to 1.7 nM.

On to B16, for which the ROS IC50 amounted to 1.76 nM. Molecule B17 had an ROS IC50 of 0.91 nM. B18 yielded an ROS IC50 of 0.96 nM.

The target in the next experiment is T1, human C5a (source not stated). Description: cell-based or functional assay. This is another data set of the same source.
On to B19, for which the “ROS IC50” value amounted to 1.51 nM. As for B20, the “ROS IC50” value was found to be 0.84 nM.

Regarding B21, the “ROS IC50” value is 1.08 nM.
